Experiments:
[1] = target: T1, human EPDR1 (Homo sapiens, UniProt Q9UM22); test: fluorescence increase titration (ex […] nm, em […] nm); type: binding
T1 construct: residues 38-224 without native signal peptide; N-terminal His8 tag, cleavage not mentioned; codon-optimised synthetic gene, pAcGP67A; secreted from Sf9 insect cells; homodimer in crystal; three intramolecular disulfides
T1 sequence (Q9UM22 38-224): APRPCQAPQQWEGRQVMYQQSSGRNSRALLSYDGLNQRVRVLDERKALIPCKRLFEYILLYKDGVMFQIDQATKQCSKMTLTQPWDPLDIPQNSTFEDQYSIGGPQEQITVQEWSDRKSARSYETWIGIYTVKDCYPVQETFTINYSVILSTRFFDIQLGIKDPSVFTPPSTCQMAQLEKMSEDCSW

[2] = target: the molecule itself; test: crystal structure; frog EPDR1 crystals, hanging drop 22 C, 15-20% PEG 8000, 0.2 M calcium acetate, 0.1 M sodium cacodylate pH 6.5; space group P6(5)22, one molecule in the asymmetric unit, dimer with a crystallographic symmetry mate
[3] = target: the molecule itself; test: crystal structure; mouse EPDR1 crystals, hanging drop 22 C, 0.5-1.0 M lithium sulfate, 0.5-1.0 M ammonium sulfate, 0.1 M sodium citrate pH 5.6; space group P2(1), four molecules in the asymmetric unit
[4] = target: the molecule itself; test: crystal structure; human EPDR1 crystals, hanging drop 22 C, 15-20% PEG 3350 with 0.1 M citric acid pH 4.5 or 0.2 M NaCl, 0.1 M bis-Tris pH 5.5; space group P4(3), four molecules in the asymmetric unit; interfaces judged by PISA

O=S(=O)(O)c1cccc2cccc(Nc3ccccc3)c12 [1,8-ANS, 1-anilinonaphthalene-8-sulfonic acid]
Kd [1]: ~14 µM

B1: frog EPDR1 (Xenopus tropicalis, residues 38-220, N-terminal His8 tag) (natural protein, UniProt F6VRB7 38-220, looked up)
chain: TPCEAPLQWEGRIVLYDHNTGKNTRATVTYDAILQRIRILEEKKSFVPCKRFFEYIFLYQEAVMFQIEQVTKICSKNTLTEPWDPYDIPENSTYEDQYYIGGPGDQIPVQEWSDRKPARKYETWVGVYTVKDCYPVQETYTKNDSMTTSTRFFDIKLGISDPSVFNPPSTCEAAQPLLMSGDC
modifications: glycosylation at the two predicted Asn sites only slightly perceivable, too disordered to be modeled
notes: frog (Xenopus tropicalis) EPDR1, NCBI XP_002939463, residues 38-220, without the native N-terminal signal peptide; Three intramolecular disulfide bonds; source: Sf9 insect cells (baculovirus, pAcGP67A, secreted), purified (Ni-NTA, size-exclusion chromatography)
stoichiometry N [2]: 2

B2: mouse EPDR1 (residues 38-224, N-terminal His8 tag) (natural protein, UniProt Q99M71 38-224, looked up)
chain: TPQPCQAPQQWEGRQVLYQQSSGHNNRALVSYDGLNQRVRVLDERKALIPCKRLFEYILLYKEGVMFQIEQATKQCAKIPLVESWDPLDIPQNSTFEDQYSIGGPQEQILVQEWSDRRTARSYETWIGVYTAKDCYPVQETFIRNYTVVMSTRFFDVQLGIKDPSVFTPPSTCQAAQPEKMSDGCSL
modifications: N-glycosylation at Asn130 (one NAG) and at Asn182 (two NAGs and one fucose)
notes: mouse (Mus musculus) EPDR1, UniProt Q99M71, residues 38-224, without the native N-terminal signal peptide; Three intramolecular disulfide bonds; also called MERP1; source: Sf9 insect cells (baculovirus, pAcGP67A, secreted), purified (Ni-NTA, size-exclusion chromatography)
stoichiometry N [3]: 2

B3: human EPDR1 (residues 38-224, N-terminal His8 tag) (natural protein, UniProt Q9UM22 38-224, looked up)
chain: T1 sequence (Q9UM22 38-224)
modifications: glycosylation at the two predicted Asn sites only slightly perceivable, too disordered to be modeled
notes: human EPDR1, UniProt Q9UM22, residues 38-224, without the native N-terminal signal peptide; Three intramolecular disulfide bonds (Cys42-Cys172, Cys88-Cys222, Cys113-Cys210); also called mammalian ependymin-related protein 1; MERP1; source: Sf9 insect cells (baculovirus, pAcGP67A, secreted), purified (Ni-NTA, size-exclusion chromatography)
stoichiometry N [4]: 2

— PMC6608618, “Structures of three ependymin-related proteins suggest their function as a hydrophobic molecule binder” (IUCrJ, 2019)
